Test results as given in patent publication US20090062197A1 (FULCRUM SP, published 2009).
Residue numbers refer to the chain shown, from its start. In names and notes the source's numbering stands.

B1: 6HSP1 (six histidine N-terminal tagged SP1) (other)
chain: MHHHHHHATRTPKLVKHTLLTRFKDEITREQIDNYINDYTNLLDLIPSMKSFNWGTDLGMESAELNRGYTHAFESTFESKSGLQEYLDSAALAAFAEGFLPTLSQRLVIDYFLY
notes: also called 6H2; SP1 6H
B2: SP1 (wild type, stress related SP1 protein from aspen) (other)
chain: MATRTPKLVKHTLLTRFKDEITREQIDNYINDYTNLLDLIPSMKSFNWGTDLGMESAELNRGYTHAFESTFESKSGLQEYLDSAALAAFAEGFLPTLSQRLVIDYFLY
notes: Full length SP1 without any additional tag, expressed in E. coli; it self-assembles into a dodecamer; also called WT; wild type SP1
B3: SP1 variant R23A (other)
chain: B2 chain with R23A
B4: SP1 variant D27A (other)
chain: B2 chain with D27A
B5: SP1 variant I30A (other)
chain: B2 chain with I30A
B6: SP1 variant N31A (other)
chain: B2 chain with N31A
B7: SP1 variant T34A (other)
chain: B2 chain with T34A
B8: SP1 variant D38A (other)
chain: B2 chain with D38A
B9: SP1 variant Δ2-6 I40C (other)
chain: MKLVKHTLLTRFKDEITREQIDNYINDYTNLLDLCPSMKSFNWGTDLGMESAELNRGYTHAFESTFESKSGLQEYLDSAALAAFAEGFLPTLSQRLVIDYFLY
B10: SP1 variant E68A (other)
chain: B2 chain with E68A
B11: ΔNSP1 (N-terminal deleted SP1, deletion of amino acids 2-6) (other)
chain: B9 chain with C35I
notes: Recombinant variant, E. coli; also called Δ2-6; SP1 ΔN
B12: SP1 variant F106A 6XH2 (other)
chain: B1 chain with F112A
B13: SP1 variant Y108A (other)
chain: B2 chain with Y108A
B14: SP1 variant S73A S75A 6XH2 (other)
chain: B1 chain with S79A, S81A
B15: SP1 variant D38A S75A 6XH2 (other)
chain: B1 chain with D44A, S81A
B16: SP1 variant N31A T34A 6XH2 (other)
chain: B1 chain with N37A, T40A
B17: SP1 variant HH2 (other)
chain: MHHATRTPKLVKHTLLTRFKDEITREQIDNYINDYTNLLDLIPSMKSFNWGTDLGMESAELNRGYTHAFESTFESKSGLQEYLDSAALAAFAEGFLPTLSQRLVIDYFLY
B18: CRGD SP1 (tumor recognition peptide CRGD inserted into the SP1 N-terminus) (other)
chain: MCRGDATRTPKLVKHTLLTRFKDEITREQIDNYINDYTNLLDLIPSMKSFNWGTDLGMESAELNRGYTHAFESTFESKSGLQEYLDSAALAAFAEGFLPTLSQRLVIDYFLY
notes: also called CRGD2
B19: RGDC SP1 (tumor recognition peptide RGDC inserted into the SP1 N-terminus) (other)
chain: B18 chain with C2R, R3G, G4D, D5C
notes: also called RGDC2
B20: SP1 variant Δ2-6 His2 (other)
chain: MHKLVKHTLLTRFKDEITREQIDNYINDYTNLLDLIPSMKSFNWGTDLGMESAELNRGYTHAFESTFESKSGLQEYLDSAALAAFAEGFLPTLSQRLVIDYFLY
B21: SP1 variant Δ2-7 Cys2 (other)
chain: B9 chain with K2C, C35I
B22: SP1 variant Cys2loop1RGd (Cys2 K18R Gly19) (other)
chain: MCATRTPKLVKHTLLTRFRGDEITREQIDNYINDYTNLLDLIPSMKSFNWGTDLGMESAELNRGYTHAFESTFESKSGLQEYLDSAALAAFAEGFLPTLSQRLVIDYFLY
B23: SP1 variant Δ2-6 L81C (other)
chain: B9 chain with C35I, L76C
B24: SP1 variant Δ2-6 E72C (other)
chain: B9 chain with C35I, E67C

Molecular target: B11
Test: co-electro-elution of monomers, Ni-NTA pull-down, Proteinase K, SDS-PAGE
Method: Protein samples were prepared in SDS-sample buffer with excess ratio of SDS to the sample, either boiled (b) for 5 min, or without boiling (nb). […] The hetero-oligomeric complex was isolated on Ni-NTA Agarose beads (lanes 6 and 7).
The denatured proteins were then separated in preparative SDS-PAGE, and visualized by Coomassie blue staining. The monomeric forms of two recombinant protein bands were excised. […] In order to enhance the surface/volume ratio, the gel slices were pulverized using a pestle and mortar in the presence of liquid nitrogen.

Q: Does B1 bind?
A: Result: binds

Molecular target: the molecule itself
Test: homo-oligomer complex formation, SDS-PAGE of unboiled samples

Q: Does B2 bind?
A: Result: binds

Q: Does B3 bind?
A: Result: binds

Q: Does B4 bind?
A: Result: binds

Q: Does B5 bind?
A: Result: binds

Q: Does B6 bind?
A: Result: binds

Q: Does B7 bind?
A: Result: binds

Q: Does B8 bind?
A: Result: binds

Q: Does B9 bind?
A: Result: binds

Q: Does B10 bind?
A: Result: binds

Q: Does B11 bind?
A: Result: binds

Q: Does B12 bind?
A: Result: binds

Q: Does B13 bind?
A: Result: binds

Q: Does B14 bind?
A: Result: binds

Q: Does B15 bind?
A: Result: binds

Q: Does B16 bind?
A: Result: binds

Q: Does B1 bind?
A: Result: binds

Q: Does B17 bind?
A: Result: binds

Q: Does B18 bind?
A: Result: binds

Q: Does B19 bind?
A: Result: binds

Q: Does B20 bind?
A: Result: binds

Q: Does B21 bind?
A: Result: binds

Molecular target: the molecule itself
Test: homo-oligomer complex formation after inclusion body refolding, SDS-PAGE, proteinase digestion of monomers
Method: The pellet (FIG. 5a, lane 3) was discarded, and the supernatant was collected and dialyzed against buffer with 2 mM DTT for four days (FIG. 5a, lane 4).

Q: Does B22 bind?
A: Result: binds

Q: Does B23 bind?
A: Result: binds

Molecular target: the molecule itself
Test: homo-oligomer complex formation after inclusion body refolding (footnote 10), SDS-PAGE, proteinase digestion of monomers
From the text: Complex assembly was confirmed by eliminating the monomeric forms using proteinase digestion.

Q: Does B24 bind?
A: Result: binds
